Here are results for five proteins from US20200261490.

Data set [1] addresses recombinant human stanniocalcin 2, C-terminally myc-his-tagged.
Data set [2] addresses recombinant human stanniocalcin 1, C-terminally myc-his-tagged.

B1: human ADAM-10 (protein)
chain: TTSAEKNTCQLYIQTDHLFFKYYGTREAVIAQISSHVKAIDTIYQTTDFSGIRNISFMVKRIRINTTADEKDPTNPFRFPNIGVEKFLELNSEQNHDDYCLAYVFTDRDFDDGVLGLAWVGAPSGSSGGICEKSKLYSDGKKKSLNTGIITVQNYGSHVPPKVSHITFAHEVGHNFGSPHDSGTECTPGESKNLGQKENGNYIMYARATSGDKLNNNKFSLCSIRNISQVLEKKRNNCFVESGQPICGNGMVEQGEECDCGYSDQCKDECCFDANQPEGRKCKLKPGKQCSPSQGPCCTAQCAFKSKSEKCRDDSDCAREGICNGFTALCPASDPKPNFTDCNRHTQVCINGQCAGSICEKYGLEECTCASSDGKDDKELCHVCCMKKMDPSTCASTGSVQWSRHFSGRTITLQPGSPCNDFRGYCDVFMRCRLVDADGPLARLKKAIFSPELYENIAE
Regarding B1, the “cleavage of 125I-IGFBP-5 by the proteinase with a 10-fold molar excess of STC, 8 h preincubation” value in data set [1] is on record as “None of the proteinases tested was inhibited by STC1, or by STC2 following incubation”. For the same protein, the “cleavage of 125I-IGFBP-5 by the proteinase with a 10-fold molar excess of STC” value in data set [2] is “None of the proteinases tested was inhibited by STC1, or by STC2 following incubation”.

B2: human matrix metalloproteinase-2 (protein)
chain: APSPIIKFPGDVAPKTDKELAVQYLNTFYGCPKESCNLFVLKDTLKKMQKFFGLPQTGDLDQNTIETMRKPRCGNPDVANYNFFPRKPKWDKNQITYRIIGYTPDLDPETVDDAFARAFQVWSDVTPLRFSRIHDGEADIMINFGRWEHGDGYPFDGKDGLLAHAFAPGTGVGGDSHFDDDELWTLGEGQVVRVKYGNADGEYCKFPFLFNGKEYNSCTDTGRSDGFLWCSTTYNFEKDGKYGFCPHEALFTMGGNAEGQPCKFPFRFQGTSYDSCTTEGRTDGYRWCGTTEDYDRDKKYGFCPETAMSTVGGNSEGAPCVFPFTFLGNKYESCTSAGRSDGKMWCATTANYDDDRKWGFCPDQGYSLFLVAAHEFGHAMGLEHSQDPGALMAPIYTYTKNFRLSQDDIKGIQELYGASPDIDLGTGPTPTLGPVTPEICKQDIVFDGIAQIRGEIFFFKDRFIWRTVTPRDKPMGPLLVATFWPELPEKIDAVYEAPQEEKAVFFAGNEYWIYSASTLERGYPKPLTSLGLPPDVQRVDAAFNWSKNKKTYIFAGDKFWRYNEVKKKMDPGFPKLIADAWNAIPDNLDAVVDLQGGGHSYFFKGAYYLKLENQSLKSVKFGSIKSDWLGC
Take B2: the “cleavage of 125I-IGFBP-5 by the proteinase with a 10-fold molar excess of STC, 8 h preincubation” value in data set [1] is recorded as “None of the proteinases tested was inhibited by STC1, or by STC2 following incubation”. Moreover, the “cleavage of 125I-IGFBP-5 by the proteinase with a 10-fold molar excess of STC” value in data set [2] is on record as “None of the proteinases tested was inhibited by STC1, or by STC2 following incubation”.

B3: human matriptase (protein)
chain: VVGGTDADEGEWPWQVSLHALGQGHICGASLISPNWLVSAAHCYIDDRGFRYSDPTQWTAFLGLHDQSQRSAPGVQERRLKRIISHPFFNDFTFDYDIALLELEKPAEYSSMVRPICLPDASHVFPAGKAIWVTGWGHTQYGGTGALILQKGEIRVINQTTCENLLPQQITPRMMCVGFLSGGVDSCQGDSGGPLSSVEADGRIFQAGVVSWGDGCAQRNKPGVYTRLPLFRDWIKENTGV
For B3, the “cleavage of 125I-IGFBP-5 by the proteinase with a 10-fold molar excess of STC, 8 h preincubation” value in data set [1] is “None of the proteinases tested was inhibited by STC1, or by STC2 following incubation”. The “cleavage of 125I-IGFBP-5 by the proteinase with a 10-fold molar excess of STC” value in data set [2] was “None of the proteinases tested was inhibited by STC1, or by STC2 following incubation”.

B4: human PAPP-A2 (pappalysin-2) (protein)
chain: PPEESNQNGGEGSYREAETFNSQVGLPILYFSGRRERLLLRPEVLAEIPREAFTVEAWVKPEGGQNNPAIIAGVFDNCSHTVSDKGWALGIRSGKDKGKRDARFFFSLCTDRVKKATILISHSRYQPGTWTHVAATYDGRHMALYVDGTQVASSLDQSGPLNSPFMASCRSLLLGGDSSEDGHYFRGHLGTLVFWSTALPQSHFQHSSQHSSGEEEATDLVLTASFEPVNTEWVPFRDEKYPRLEVLQGFEPEPEILSPLQPPLCGQTVCDNVELISQYNGYWPLRGEKVIRYQVVNICDDEGLNPIVSEEQIRLQHEALNEAFSRYNISWQLSVHQVHNSTLRHRVVLVNCEPSKIGNDHCDPECEHPLTGYDGGDCRLQGRCYSWNRRDGLCHVECNNMLNDFDDGDCCDPQVADVRKTCFDPDSPKRAYMSVKELKEALQLNSTHFLNIYFASSVREDLAGAATWPWDKDAVTHLGGIVLSPAYYGMPGHTDTMIHEVGHVLGLYHVFKGVSERESCNDPCKETVPSMETGDLCADTAPTPKSELCREPEPTSDTCGFTRFPGAPFTNYMSYTDDNCTDNFTPNQVARMHCYLDLVYQQWTESRKPTPIPIPPMVIGQTNKSLTIHWLPPISGVVYDRASGSLCGACTEDGTFRQYVHTASSRRVCDSSGYWTPEEAVGPPDVDQPCEPSLQAWSPEVHLYHMNMTVPCPTEGCSLELLFQHPVQADTLTLWVTSFFMESSQVLFDTEILLENKESVHLGPLDTFCDIPLTIKLHVDGKVSGVKVYTFDERIEIDAALLTSQPHSPLCSGCRPVRYQVLRDPPFASGLPVVVTHSHRKFTDVEVTPGQMYQYQVLAEAGGELGEASPPLNHIHGAPYCGDGKVSERLGEECDDGDLVSGDGCSKVCELEEGFNCVGEPSLCYMYEGDGICEPFERKTSIVDCGIYTPKGYLDQWATRAYSSHEDKKKCPVSLVTGEPHSLICTSYHPDLPNHRPLTGWFPCVASENETQDDRSEQPEGSLKKEDEVWLKVCFNRPGEARAIFIFLTTDGLVPGEHQQPTVTLYLTDVRGSNHSLGTYGLSCQHNPLIINVTHHQNVLFHHTTSVLLNFSSPRVGISAVALRTSSRIGLSAPSNCISEDEGQNHQGQSCIHRPCGKQDSCPSLLLDHADVVNCTSIGPGLMKCAITCQRGFALQASSGQYIRPMQKEILLTCSSGHWDQNVSCLPVDCGVPDPSLVNYANFSCSEGTKFLKRCSISCVPPAKLQGLSPWLTCLEDGLWSLPEVYCKLECDAPPIILNANLLLPHCLQDNHDVGTICKYECKPGYYVAESAEGKVRNKLLKIQCLEGGIWEQGSCIPVVCEPPPPVFEGMYECTNGFSLDSQCVLNCNQEREKLPILCTKEGLWTQEFKLCENLQGECPPPPSELNSVEYKCEQGYGIGAVCSPLCVIPPSDPVMLPENITADTLEHWMEPVKVQSIVCTGRRQWHPDPVLVHCIQSCEPFQADGWCDTINNRAYCHYDGGDCCSSTLSSKKVIPFAADCDLDECTCRDPKAEENQ
Take B4: the “cleavage of 125I-IGFBP-5 by PAPP-A2” value in data set [1] and in data set [2] was “both STCs were able to partially inhibit PAPP-A2 (pappalysin-2)” each time.

B5: recombinant human PAPP-A (pregnancy-associated plasma protein-A, pappalysin-1) (protein)
chain: EARGATEEPSPPSRALYFSGRGEQLRLRADLELPRDAFTLQVWLRAEGGQRSPAVITGLYDKCSYISRDRGWVVGIHTISDQDNKDPRYFFSLKTDRARQVTTINAHRSYLPGQWVYLAATYDGQFMKLYVNGAQVATSGEQVGGIFSPLTQKCKVLMLGGSALNHNYRGYIEHFSLWKVARTQREILSDMETHGAHTALPQLLLQENWDNVKHAWSPMKDGSSPKVEFSNAHGFLLDTSLEPPLCGQTLCDNTEVIASYNQLSSFRQPKVVRYRVVNLYEDDHKNPTVTREQVDFQHHQLAEAFKQYNISWELDVLEVSNSSLRRRLILANCDISKIGDENCDPECNHTLTGHDGGDCRHLRHPAFVKKQHNGVCDMDCNYERFNFDGGECCDPEITNVTQTCFDPDSPHRAYLDVNELKNILKLDGSTHLNIFFAKSSEEELAGVATWPWDKEALMHLGGIVLNPSFYGMPGHTHTMIHEIGHSLGLYHVFRGISEIQSCSDPCMETEPSFETGDLCNDTNPAPKHKSCGDPGPGNDTCGFHSFFNTPYNNFMSYADDDCTDSFTPNQVARMHCYLDLVYQGWQPSRKPAPVALAPQVLGHTTDSVTLEWFPPIDGHFFERELGSACHLCLEGRILVQYASNASSPMPCSPSGHWSPREAEGHPDVEQPCKSSVRTWSPNSAVNPHTVPPACPEPQGCYLELEFLYPLVPESLTIWVTFVSTDWDSSGAVNDIKLLAVSGKNISLGPQNVFCDVPLTIRLWDVGEEVYGIQIYTLDEHLEIDAAMLTSTADTPLCLQCKPLKYKVVRDPPLQMDVASILHLNRKFVDMDLNLGSVYQYWVITISGTEESEPSPAVTYIHGSGYCGDGIIQKDQGEQCDDMNKINGDGCSLFCRQEVSFNCIDEPSRCYFHDGDGVCEEFEQKTSIKDCGVYTPQGFLDQWASNASVSHQDQQCPGWVIIGQPAASQVCRTKVIDLSEGISQHAWYPCTISYPYSQLAQTTFWLRAYFSQPMVAAAVIVHLVTDGTYYGDQKQETISVQLLDTKDQSHDLGLHVLSCRNNPLIIPVVHDLSQPFYHSQAVRVSFSSPLVAISGVALRSFDNFDPVTLSSCQRGETYSPAEQSCVHFACEKTDCPELAVENASLNCSSSDRYHGAQCTVSCRTGYVLQIRRDDELIKSQTGPSVTVTCTEGKWNKQVACEPVDCSIPDHHQVYAASFSCPEGTTFGSQCSFQCRHPAQLKGNNSLLTCMEDGLWSFPEALCELMCLAPPPVPNADLQTARCRENKHKVGSFCKYKCKPGYHVPGSSRKSKKRAFKTQCTQDGSWQEGACVPVTCDPPPPKFHGLYQCTNGFQFNSECRIKCEDSDASQGLGSNVIHCRKDGTWNGSFHVCQEMQGQCSVPNELNSNLKLQCPDGYAIGSECATSCLDHNSESIILPMNVTVRDIPHWLNPTRVERVVCTAGLKWYPHPALIHCVKGCEPFMGDNYCDAINNRAFCNYDGGDCCTSTVKTKKVTPFPMSCDLQGDCACRDPQAQEHSRKDLRGYSHG
For the protein B5, in data set [1], the “PAPP-A cleavage of IGFBP-4 with purified STC added at the beginning of the cleavage reaction” value was “in this experiment, no inhibitory effect of STC2 was observed”; the “PAPP-A mediated cleavage of 125I-IGFBP-4 after overnight pre-incubation” value is “the presence of STC2 fully inhibited PAPP-A mediated IGFBP-4 cleavage”; the “PAPP-A proteolytic activity towards IGFBP-4 after 16 h incubation” value is given as “after 16 hours of incubation with STC2, PAPP-A showed no activity”. The “PAPP-A cleavage of IGFBP-4 with purified STC added at the beginning of the cleavage reaction” value in data set [2] is “STC1 still inhibited PAPP-A”.
